# Experimental data reported in publication PMC12354661.
# pKd: −log10 of the molar value.
# Key:
# [1] = molecular target: T1, C-type lectin-like molecule-1 (CLL-1), immobilized on magnetic beads or SPR chip (UniProt Q5QGZ9); test: flow cytometry (bead binding); conditions: Flow cytometry: 100 nM FAM-aptamer, 10 uL MB-CLL-1 in 200 uL DPBS, room temperature, 30 min, 150 rpm, 3 DPBS washes, SPR buffer and temperature not stated
# T1 sequence: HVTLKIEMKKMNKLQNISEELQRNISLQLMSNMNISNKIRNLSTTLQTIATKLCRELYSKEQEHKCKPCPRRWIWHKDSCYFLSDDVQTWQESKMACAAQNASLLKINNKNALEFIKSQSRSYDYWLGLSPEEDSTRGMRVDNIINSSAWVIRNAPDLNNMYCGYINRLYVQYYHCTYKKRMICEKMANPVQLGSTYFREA
# [2] = molecular target: T1, C-type lectin-like molecule-1 (CLL-1), immobilized on magnetic beads or SPR chip; test: SPR; conditions: aptamer 0.000244-0.0625 uM, Flow cytometry: 100 nM FAM-aptamer, 10 uL MB-CLL-1 in 200 uL DPBS, room temperature, 30 min, 150 rpm, 3 DPBS washes, SPR buffer and temperature not stated
sequence,measurement,setting,value
AACACTGGGGGCTGCTCGGGATTGTCGGACGTGGTG [Aptamer-4 (Apt-4)],binding signal (% FITC-positive beads),[1]; 100 nM aptamer,2.84
ATTACCAGGGACCGAAGGCAAAACTATGATCGGTGG [Aptamer-2 (Apt-2)],pKd,[2],7.81
same,binding signal (% FITC-positive beads),[1]; 100 nM aptamer,94.3
same,binding signal (% FITC-positive beads),"[1]; 100 nM aptamer, specificity experiment",100
CACGAACCGGGGAGGGCGGGCGGGTTGGTGTCGTGC [Aptamer-3 (Apt-3)],binding signal (% FITC-positive beads),[1],1.23
TCGCGAAGGGTGGGGACTGCTCGGGATTGCGGATGC [Aptamer-1 (Apt-1)],binding signal (% FITC-positive beads),"[1]; 100 nM aptamer, text gives 3.28",3.26
